The results in this text go back to article PMC7145715.

This data set deals with KDM4B (1-350) (UniProt O94953 1-350). The data set is described as follows: EMSA.
Chain of KDM4B (1-350) (O94953 1-350): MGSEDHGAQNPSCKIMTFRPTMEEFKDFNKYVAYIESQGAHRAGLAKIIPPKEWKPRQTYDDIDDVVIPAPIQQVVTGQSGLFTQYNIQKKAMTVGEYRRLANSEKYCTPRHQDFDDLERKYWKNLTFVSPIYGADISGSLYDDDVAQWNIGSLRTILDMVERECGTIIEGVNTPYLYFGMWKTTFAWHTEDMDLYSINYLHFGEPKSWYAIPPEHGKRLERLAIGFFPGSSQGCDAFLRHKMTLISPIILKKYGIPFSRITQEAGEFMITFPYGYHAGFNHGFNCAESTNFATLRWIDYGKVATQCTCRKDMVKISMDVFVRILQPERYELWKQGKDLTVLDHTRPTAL

As for CUCAUCUCCAGUCUGAGUAAUAAUGCUUAUAGUAUUAUGG (ssRNA) [WT-4BRBS (AR-A2)], the binding result is recorded as “binds”.
